Assay results reported in patent publication US20180021429A1, “ANTICANCER AGENTS OR ANTIMETASTATIC AGENTS USING FSTL1 AND COMBINATION DRUG THEREOF” (PHARMA FOODS INTERNATIONAL CO., LTD., priority 2015, published 2018).

Experiments:
[1] = tested on: C57/BL/6 mouse-derived bone marrow cells; test: MSC induction inhibition test using mouse bone marrow cells stimulated with FSTL1 (Example 27); format: cell-based; conditions: FSTL1 20 ng/mL, antibody 10 μg/mL, 8 days; flow cytometry; FIG. 115A
Method: (§1) In this Example, the inhibitory activity of the anti-FSTL1 antibody was confirmed in an experimental system of mesenchymal stem cell induction while a FSTL1 inhibitory effect on MSC expansion induced not only by FSTL1 but by Snail+ tumor cells was also evaluated. For specific operation, each antibody (10 μg/mL) was added to systems in which C57/BL/6 mouse-derived bone marrow cells were stimulated with FSTL1 (20 ng/mL) or a culture supernatant of tumor cells. After culture for 8 days under stimulation, cell fraction CD45(−) cells (MSCs) containing MSCs at a high rate and CD45(−)CD146(+)ALCAM(+) cells (sMSCs) increasing in number in association with cancer metastasis were analyzed by flow cytometry in the same way as in Example 14, and the number of cells per culture system was counted. In this Example, mouse immunoglobulin manufactured by BioLegend, Inc. (#401408, Cone MG1-45) was used as a control antibody.

[2] = tested on: GFP+F10-snail+ tumor cells; test: In vivo drug efficacy of each anti-FSTL1 antibody clone, GFP+F10-snail+ tumor model (Example 32); set-up: species or system mouse
Method: (§2) • Day 0: transplantation of GFP+F10-snail+ tumor cells (3×10^5 cells subcutaneously & 2×10^4 cells intravenously) • Day 4: intraperitoneal administration of the antibody (first dose, 10 mg/kg) • Day 7: intraperitoneal administration of the antibody (second dose, 10 mg/kg)
(§3) Subcutaneous tumor was measured 4, 7, 10, 14, 17, 20, and 23 days after tumor cell transplantation.

FSTL1 [3] = biological target: T1, FSTL1 (Homo sapiens, UniProt Q12841); test: MSC induction inhibition test using mouse bone marrow cells stimulated with FSTL1 (Example 27); format: cell-based; set-up: purchased R&D Systems, Inc. 1694-FN-050; conditions: FSTL1 20 ng/mL, antibody 10 μg/mL, 8 days
T1 sequence (Q12841 21-308): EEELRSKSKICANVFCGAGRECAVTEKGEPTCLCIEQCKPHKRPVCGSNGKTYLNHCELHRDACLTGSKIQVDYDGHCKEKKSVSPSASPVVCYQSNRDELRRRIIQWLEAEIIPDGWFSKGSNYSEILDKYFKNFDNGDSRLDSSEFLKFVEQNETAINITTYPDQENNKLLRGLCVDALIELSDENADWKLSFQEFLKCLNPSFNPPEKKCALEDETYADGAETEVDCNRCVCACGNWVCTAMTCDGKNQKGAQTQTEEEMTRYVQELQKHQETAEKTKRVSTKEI
Method: as §1, with “([…],” for “(#401408,”
as §1

[4] = tested on: C57/BL/6 mouse-derived spleen cells; test: Treg induction inhibition test using mouse spleen cells stimulated with FSTL1 (Example 28); format: cell-based; conditions: FSTL1 5 ng/ml, antibody 5 μg/mL, 3 days; FIG. 116
Method: (§4) In this Example, the experiment was conducted according to Example 17. Specifically, 5 μg/mL of each antibody was added to a system in which C57/BL/6 mouse-derived spleen cells (2×10^6 cells) were stimulated with 5 ng/ml of FSTL1. After culture for 3 days, the percentage (%) of a Foxp3+CTLA4+ cell fraction in CD4+ T cells was analyzed as Treg cells by flow cytometry. Activity was compared with #6-55 used in the preceding studies.

FSTL1 [5] = biological target: T1, FSTL1; test: Biacore T-200 affinity of mouse chimeric antibodies for human FSTL1 (Example 33); format: binding
Method: (§5) The mouse chimeric antibodies were immobilized onto Sensor Chip CM5 (GE Healthcare Japan Corp., BR-1005-30) using Mouse Antibody Capture Kit (GE Healthcare Japan Corp., BR-1008-38), and their affinity for human FSTL1 was calculated using Biacore T-200 (GE Healthcare Japan Corp.).
First, the exhaustive activity comparison of the obtained antibodies was conducted with the human FSTL1 concentration fixed to 10 μg/ml (Table 33-1, FIG. 122).
Next, the KD values of clone #6-55, #7-34, and #13 presumed to have high affinity in FIG. 122 were calculated with the antigen concentration adjusted to 0 to 20 μg/ml (Table 35-2).

[6] = tested on: GFP+F10-snail+ tumor cells; test: In vivo drug efficacy of each anti-FSTL1 antibody clone, GFP+F10-snail+ tumor model (Example 32); set-up: species or system mouse; remark: listed apart in the source
Method: as §2, §3
Experiment Group (n=5) Control IgG (anti-DNP mAb) • #6-55 • #7 • #10 • #13 • #33
• Day 0: transplantation of GFP+F10-snail+ tumor cells (3×10^5, cells subcutaneously & 2×10^4 cells intravenously) • Day 4: intraperitoneal administration of the antibody (first dose, 10 mg/kg) • Day 7: intraperitoneal administration of the antibody (second dose, 10 mg/kg)

[7] = tested on: C57/BL/6 mouse-derived bone marrow cells; test: MSC induction inhibition test using mouse bone marrow cells, FSTL1 stimulation (Example 27); format: cell-based; conditions: FSTL1 20 ng/mL; antibody 10 μg/mL; 8 days; FIG. 21A
Method: as §1

FSTL1 [8] = biological target: T1, FSTL1; test: Affinity of mouse chimeric antibodies, Biacore T-200 (Example 33); format: binding
Method: as §5
First, the exhaustive activity comparison of the obtained antibodies was conducted with the human FSTL1 concentration fixed to 10 μg/ml (Table 33-1, FIG. 28).
Next, the KD values of clone #6-55, #7-34, and #13 presumed to have high affinity in FIG. 28 were calculated with the antigen concentration adjusted to 0 to 20 μg/ml (Table 35-2).

[9] = tested on: GFP+F10-snail+ tumor cells; test: In vivo drug efficacy of each anti-FSTL1 antibody clone, Snail+ tumor bone metastasis model (Example 32); set-up: species or system mouse
Method: as §2, §3

[10] = tested on: C57/BL/6 mouse-derived spleen cells; test: Treg induction inhibition test using mouse spleen cells (Example 28); format: cell-based; conditions: FSTL1 5 ng/ml; antibody 5 μg/mL; 3 days; FIG. 22
Method: as §4

FSTL1 [11] = biological target: T1, FSTL1; test: Affinity of mouse chimeric antibodies for human FSTL1, Biacore T-200 (Example 33); format: binding
Method: as §5
First, the exhaustive activity comparison of the obtained antibodies was conducted with the human FSTL1 concentration fixed to 10 μg/ml (Table 33-1, FIG. 58).
Next, the KD values of clone #6-55, #7-34, and #13 presumed to have high affinity in FIG. 58 were calculated with the antigen concentration adjusted to 0 to 20 μg/ml (Table 35-2).
First, the exhaustive activity comparison of the obtained antibodies was conducted with the human FSTL1 concentration fixed to 10 μg/ml (Table 33-1, FIG. 90).
Next, the KD values of clone #6-55, #7-34, and #13 presumed to have high affinity in FIG. 90 were calculated with the antigen concentration adjusted to 0 to 20 μg/ml (Table 35-2).

FSTL1 [12] = biological target: T1, FSTL1; test: Treg induction inhibition test using mouse spleen cells stimulated with FSTL1 (Example 28); format: cell-based; set-up: purchased R&D Systems, Inc. 1694-FN-050; conditions: FSTL1 5 ng/ml, antibody 5 μg/mL, 3 days
Method: as §4
as §4, with “[…]” for “#6-55”

B1: #10: chicken-mouse chimeric anti-FSTL1 antibody clone; variable regions SEQ ID NO: 811 (light), 813 (heavy) (antibody, V domains shown)
VH: AVTLDESGGGLQTPGGALSLVCKASGFFFFRIYDMGWVRQAPGKGLEWVAGIDDYGRYTGYGSAVKGRATISRDNGQSTVRLQLNNLRAEDTGTYYCARGAGTGCNSAGCGAYAGSIDAWGHGTEVIVSS
VL: ASTQPSSVSANPGETVKLTCSGGGSRYGWYQQKSPGSAPVTVIYYNDKRPSDIPSRFSGSKSGSTATLTITGVQAEDEAVYFCGGYDGSRDAGIFGAGTTLTVL
modifications: mouse constant regions
[1]
  MSC induction inhibitory effect: strong inhibitory effect equivalent to or higher than that of #6-55
[2]; intraperitoneal 10 mg/kg on days 4 and 7, FIG. 121
  mouse survival period (life-prolonging effect): therapeutic effects equal to or higher than those of #6-55
[2]; stated as a possibility
  comprehensive evaluation of antitumor activity: high antitumor activity exceeding that of #6-55
FSTL1 [3]
  MSC induction inhibitory activity, reproducibility confirmed: high MSC induction inhibitory activity equivalent to or higher than that of #6-55
  inhibitory effect in the MSC induction inhibition test (CD45(−) MSCs and sMSCs, flow cytometry): strong inhibitory effect equivalent to or higher than that of #6-55
[4]
  Treg induction (Foxp3+CTLA4+ fraction in CD4+ T cells): strong suppressive activity equal to or higher than that of #6-55
FSTL1 [5]
  affinity in an assay system using surface plasmon resonance: strong affinity
[6]; intraperitoneal 10 mg/kg on days 4 and 7, vs control antibody
  mouse survival period (life-prolonging effect): therapeutic effects equal to or higher than those of #6-55
[6]; mouse, in vivo
  comprehensive evaluation of antitumor activity: high antitumor activity exceeding that of #6-55
[7]
  MSC induction inhibitory activity (CD45(−) MSCs, CD45(−)CD146(+)ALCAM(+) sMSCs): high MSC induction inhibitory activity equivalent to or higher than that of #6-55
FSTL1 [8]
  affinity in surface plasmon resonance assay: strong affinity
[9]; intraperitoneal 10 mg/kg on days 4 and 7, FIG. 27
  mouse survival period (life-prolonging effect): therapeutic effects equal to or higher than those of #6-55
[9]; mouse, in vivo
  comprehensive evaluation of antitumor activity: high antitumor activity exceeding that of #6-55
[10]
  Treg induction (Foxp3+CTLA4+ cell fraction in CD4+ T cells): strong suppressive activity equal to or higher than that of #6-55
FSTL1 [11]
  affinity in an assay system using surface plasmon resonance: strong affinity
FSTL1 [12]
  Treg induction (Foxp3+CTLA4+ fraction in CD4+ T cells): strong suppressive activity equal to or higher than that of #6-55
